From patent publication KR20230148435A
One block for each binder: values may come before it.

What was measured:
[1] = biological target: HGF protein (hepatocyte growth factor) (UniProt P14210); experiment: ELISA, HGF coated on plate, YYB-101 at 1 ug/mL as positive control
[2] = biological target: HGF protein (hepatocyte growth factor) (UniProt P14210); experiment: ELISA, HGF coated on plate, 24 h culture supernatant of YYB-103-1XX+YYB-101 scFv CAR-T cells

UniProt P14210, sequence (P14210 32-728 limits assumed): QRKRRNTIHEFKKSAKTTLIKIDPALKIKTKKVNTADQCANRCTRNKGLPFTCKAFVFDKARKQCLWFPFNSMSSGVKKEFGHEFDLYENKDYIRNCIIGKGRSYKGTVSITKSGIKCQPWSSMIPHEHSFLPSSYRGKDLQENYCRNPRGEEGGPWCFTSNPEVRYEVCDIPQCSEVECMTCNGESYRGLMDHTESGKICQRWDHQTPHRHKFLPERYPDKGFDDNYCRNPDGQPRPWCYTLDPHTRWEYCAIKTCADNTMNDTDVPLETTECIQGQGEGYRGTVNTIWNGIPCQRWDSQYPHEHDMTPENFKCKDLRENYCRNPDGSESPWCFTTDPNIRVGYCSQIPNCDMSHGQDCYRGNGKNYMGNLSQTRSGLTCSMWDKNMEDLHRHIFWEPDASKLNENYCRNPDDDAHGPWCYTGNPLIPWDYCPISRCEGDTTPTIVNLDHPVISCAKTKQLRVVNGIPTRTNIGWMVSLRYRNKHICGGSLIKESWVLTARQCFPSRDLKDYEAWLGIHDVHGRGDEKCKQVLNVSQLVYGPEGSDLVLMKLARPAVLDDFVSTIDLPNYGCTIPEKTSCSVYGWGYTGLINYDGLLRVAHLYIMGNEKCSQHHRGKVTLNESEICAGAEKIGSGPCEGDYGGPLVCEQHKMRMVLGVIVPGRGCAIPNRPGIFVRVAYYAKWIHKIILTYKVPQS

OD, 450nm (HGF 결합) [1]: 3.02 OD 450 nm
B1: YYB-101 (HGF neutralising antibody) (antibody, human IgG4 S228P, kappa, V domains shown)
VH: EVQLVESGGGLVQPGGSLRLSCAASGFTFSTYYMSWVRQAPGKGLEWVAYIGTSSGTTYYADSVKGRFTISRDGSKNTLYLQMNSLRAEDTAVYYCARGLGRINLWGQGTLVTVSS
VL: DIQMTQSPSSLSASVGDRVTITCRASQGISNILAWYQQKPGKAPKLLIYGASNLESGVPSRFSGSGSGTDFTLTISSLQPEDFATYYCQSGYYSRGATFGQGTKVEIKR

OD, 450nm (HGF 결합) [2]: 2.63 OD 450 nm
B2: YYB-101 Single Chain Variable Fragment (scFv) (scFv)
scFv: DIQMTQSPSSLSASVGDRVTITCRASQGISNILAWYQQKPGKAPKLLIYGASNLESGVPSRFSGSGSGTDFTLTISSLQPEDFATYYCQSGYYSRGATFGQGTKVEIKGGGGSGGGGSGGGGSEVQLVESGGGLVQPGGSLRLSCAASGFTFSTYYMSWVRQAPGKGLEWVAYIGTSSGTTYYADSVKGRFTISRDGSKNTLYLQMNSLRAEDTAVYYCARGLGRINLWGQGTLVTVSS
